Laboratory results from patent US20240261333A1, “NOVEL TARGETS FOR ENHANCING ANTI-TUMOR IMMUNITY” (THE BROAD INSTITUTE, INC., priority 2021, published 2024).

B1: TXN (protein)
chain: VKQIESKTAFQEALDAAGDKLVVVDFSATWCGPCKMIKPFFHSLSEKYSNVIFLEVDVDDCQDVASECEVKCMPTFQFFKKGQKVGEFSGANKEKLEATINELV
B2: CDSN (protein)
chain: KSIGTFSDPCKDPTRITSPNDPCLTGKGDSSGFSSYSGSSSSGSSISSARSSGGGSSGSSSGSSIAQGGSAGSFKPGTGYSQVSYSSGSGSSLQGASGSSQLGSSSSHSGNSGSHSGSSSSHSSSSSSFQFSSSSFQVGNGSALPTNDNSYRGILNPSQPGQSSSSSQTFGVSSSGQSVSSNQRPCSSDIPDSPCSGGPIVSHSGPYIPSSHSVSGGQRPVVVVVDQHGSGAPGVVQGPPCSNGGLPGKPCPPITSVDKSYGGYEVVGGSSDSYLVPGMTYSKGKIYPVGYFTKENPVKGSPGVPSFAAGPPISEGKYFSSNPIIPSQSAASSAIAFQPVGTGGVQLCGGGSTGSKGPCSPSSSRVPSSSSISSSSGLPYHPCGSASQSPCSPPGTGSFSSSSSSQSSGKIILQPCGSKSSSSGHPCMSVSSLTLTGGPDGSPHPDPSAGAKPCGSSSAGKIPCRSIRDILAQVKPLGPQLADPEVFLPQGELLNSP
B3: TAGLN (protein)
chain: ANKGPSYGMSREVQSKIEKKYDEELEERLVEWIIVQCGPDVGRPDRGRLGFQVWLKNGVILSKLVNSLYPDGSKPVKVPENPPSMVFKQMEQVAQFLKAAEDYGVIKTDMFQTVDLFEGKDMAAVQRTLMALGSLAVTKNDGHYRGDPNWFMKKAQEHKREFTESQLQEGKHVIGLQMGSNRGASQAGMTGYGRPRQIIS
B4: KCTD5 (protein)
chain: AENHCELLSPARGGIGAGLGGGLCRRCSAGLGALAQRPGSVSKWVRLNVGGTYFLTTRQTLCRDPKSFLYRLCQADPDLDSDKDETGAYLIDRDPTYFGPVLNYLRHGKLVINKDLAEEGVLEEAEFYNITSLIKLVKDKIRERDSKTSQVPVKHVYRVLQCQEEELTQMVSTMSDGWKFEQLVSIGSSYNYGNEDQAEFLCVVSKELHNTPYGTASEPSEKAKILQERGSRM
B5: POF1B (protein)
chain: MSSSYWSETSSSSCGTQQLPEVLQCQPQHYHCYHQSSQAQQPPEKNVVYERVRTYSGPMNKVVQALDPFNSREVLSPLKTTSSYQNLVWSDHSQELHSPTLKISTCAPSTLHITQNTEQELHSPTVKLTTYPQTTIRKYVVQNPEQEPLSQFLRGSHFFPGNNVIYEKTIRKVEKLNTDQGCHPQAQCHHHIIQQPQVIHSAHWQQPDSSQQIQAITGNNPISTHIGNELCHSGSSQICEQVIIQDDGPEKLDPRYFGELLADLSRKNTDLYHCLLEHLQRIGGSKQDFESTDESEDIESLIPKGLSEFTKQQIRYILQMRGMSDKSLRLVLSTFSNIREELGHLQNDMTSLENDKMRLEKDLSFKDTQLKEYEELLASVRANNHQQQQGLQDSSSKCQALEENNLSLRHTLSDMEYRLKELEYCKRNLEQENQNLRMQVSETCTGPMLQAKMDEIGNHYTEMVKNLRMEKDREICRLRSQLNQYHKDVSKREGSCSDFQFKLHELTSLLEEKDSLIKRQSEELSKLRQEIYSSHNQPSTGGRTTITTKKYRTQYPILGLLYDDYEYIPPGSETQTIVIEKTEDKYTCVSSLGHF

Molecular target: T1, B3GNT2 (Homo sapiens, UniProt Q9NY97)
T1 construct: The respective ORFs of candidate genes [CD274 (NM_014143), MCL1 (NM_021960), JUNB (NM_002229), and B3GNT2 (NM_006577)] were synthesized; expressed in transfected cells; host or cells: A375 melanoma cells (lentiviral ORF overexpression)
T1 sequence (Q9NY97 1-397): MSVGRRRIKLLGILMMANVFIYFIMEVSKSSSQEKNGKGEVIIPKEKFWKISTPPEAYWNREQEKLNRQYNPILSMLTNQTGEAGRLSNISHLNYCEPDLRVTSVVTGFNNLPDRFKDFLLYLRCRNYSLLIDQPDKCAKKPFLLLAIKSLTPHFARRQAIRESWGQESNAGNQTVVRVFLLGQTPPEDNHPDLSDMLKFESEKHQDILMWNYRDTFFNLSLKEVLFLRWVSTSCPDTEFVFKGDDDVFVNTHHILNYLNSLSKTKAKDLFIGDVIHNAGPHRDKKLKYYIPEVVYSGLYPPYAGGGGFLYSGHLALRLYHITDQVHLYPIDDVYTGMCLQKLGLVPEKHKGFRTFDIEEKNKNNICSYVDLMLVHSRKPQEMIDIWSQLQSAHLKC
Assay: Co-IP of FLAG-tagged B3GNT2 followed by mass spectrometry
Assay type: cell-based
Parameters: C-term IgG / C-term flag: unit not given here
Details: Co-IP followed by mass spectrometry of B3GNT2; C-term tag, FLAG pull-down
Method: Cells were plated in 10-cm cell culture dishes and grown to 60-80% confluency. For each condition, two biological replicates were harvested for co-IP. Cells were washed with PBS and 4 mL of lysis buffer (20 mM HEPES, 1% Triton X-100, 150 mM NaCl, 1 mM EDTA, and 10% glycerol) containing protease inhibitor cocktail was added. Cells were scraped and lysate was incubated at 4° C. under rotary agitation for 1 h. Lysate was centrifuged at 14,000×g for 10 min at 4° C. Supernatant was transferred to a new tube and an aliquot was taken as the input. […] For Western blots, 10 μg/mL Chicken Anti-FLAG (Aves labs ET-DY100) and IgY control (R&D Systems AB-101-C) antibodies were biotinylated (Thermo Fisher Scientific 90407) and added to the respective conditions. Lysates with antibodies were incubated at 4° C. under rotary agitation overnight. For each mL of lysate, 50 μL of Pierce Protein A/G Magnetic Beads (Mass spectrometry; Thermo Fisher Scientific 88803) or Pierce Streptavidin Magnetic Beads (Western blot; Thermo Fisher Scientific 88817) was washed twice with lysis buffer. Lysates with antibodies were added to the beads and incubated at 4° C. under rotary agitation for 4 h. Beads were washed with lysis buffer 3 times and resuspended in lysis buffer for storage. […] This solution was subjected to solid phase extraction to concentrate the peptides and remove unwanted reagents followed by injection onto a Shimadzu HPLC with fraction collector. Eight fractions were collected and after concentration were injected on a Waters NanoAcquity HPLC equipped with a self-packed Aeris 3 μm C18 analytical column 0.075 mm by 20 cm, (Phenomenex). Peptides were eluted using standard reverse-phase gradients. The effluent from the column was analyzed using a Thermo Orbitrap Elite mass spectrometer (nanospray configuration) operated in a data dependent manner for 54 minutes. […] Scaffold Q+S (Proteome Software) was used to provide consensus reports for the identified proteins.

Row | Molecule | C-term flag
1 | B1 | 3
2 | B2 | 0
3 | B3 | 3
4 | B4 | 3
5 | B5 | 0

Same assay, conditions: Co-IP followed by mass spectrometry of B3GNT2; C-term tag, IgG pull-down

Row | Molecule | C-term IgG
6 | B1 | 0
7 | B2 | 0
8 | B3 | 0
9 | B4 | 0
10 | B5 | 0

Same assay, conditions: Co-IP followed by mass spectrometry of B3GNT2; N-term tag, FLAG pull-down

Row | Molecule | N-term FLAG
11 | B1 | 3
12 | B2 | 5
13 | B3 | 2
14 | B4 | 2
15 | B5 | 5

Same assay, conditions: Co-IP followed by mass spectrometry of B3GNT2; N-term tag, IgG pull-down

Row | Molecule | N-term IgG
16 | B1 | 3
17 | B2 | 0
18 | B3 | 0
19 | B4 | 0
20 | B5 | 0
